Reference: PMC12098869, “An mRNA-display derived cyclic peptide scaffold reveals the substrate binding interactions of an N-terminal cysteine oxidase” (Nature Communications, 2025)
“And” between values parts separate entries of the source, which are not always exact repeats. Equal values may be shown once.

Legend:
Details in all cases: both partners purified
[1] = molecular target: T1, ADO-F256A, biotinylated (pQE80L-Navi-ADO) (human, UniProt Q96SZ5 1-270, F256A, biotin on the Avi tag); experiment: SPR; multi-cycle, equilibrium steady state affinity 1:1 binding model; biotinylated ADO or variant immobilised on a Biotin CAP chip (~2500-3000 RU), peptide injected; 4 °C; 20 mM HEPES pH 7.5, 500 mM NaCl, 10 mM DTT, 0.1% (v/v) tween-20; 50 μL/minute
T1 construct: Tag as in Dm1; source: E. coli Rosetta2(DE3), purified (Ni-NTA, SEC); not shown: Avi tag, N-terminal, kept; His6, N-terminal, kept
T1 sequence (looked up): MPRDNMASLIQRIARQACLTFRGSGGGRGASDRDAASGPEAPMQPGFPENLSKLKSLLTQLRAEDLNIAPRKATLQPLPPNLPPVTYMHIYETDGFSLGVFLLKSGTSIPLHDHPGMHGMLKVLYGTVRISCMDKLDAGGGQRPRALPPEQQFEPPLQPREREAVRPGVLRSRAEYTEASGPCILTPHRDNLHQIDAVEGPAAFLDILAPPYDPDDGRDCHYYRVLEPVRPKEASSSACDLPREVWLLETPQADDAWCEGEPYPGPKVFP
Outline: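 Biotinylated full-length human ADO (wild type or engineered forms) was made in E. coli with a His tag, then purified by nickel affinity and gel filtration. It was captured on a Biotin CAP chip at about 2500–3000 RU in a Biacore T200, and peptides were flowed over it. The run was at 4 °C in HEPES pH 7.5 buffer with 500 mM NaCl, DTT and tween-20, at 50 μL/minute. Kd came from a 1:1 steady-state fit of multi-cycle equilibrium responses.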

[2] = molecular target: T2, ADO-Y87A, N-terminally His-tagged and biotinylated (human, UniProt Q96SZ5 1-270, Y87A, biotin (biotinylated during expression)); experiment: SPR; biotinylated ADO or ADO mutant immobilised on a Biotin CAP chip (~2500-3000 RU), substrate peptide injected; Biacore T200, 4 °C; 20 mM HEPES pH 7.5, 500 mM NaCl, 10 mM DTT, 0.1% tween-20; 50 µL/minute; multi-cycle or single-cycle mode not given; each cell is one of three independent measurements
T2 construct: 2-aminoethanethiol dioxygenase (ADO), human, UniProt Q96SZ5, full length, site-directed mutant; source: E. coli Rosetta2(DE3), purified (Ni-NTA, SEC); not shown: biotinylation tag (from the vector pQE80L-Navi), N-terminal, kept
T2 sequence (looked up): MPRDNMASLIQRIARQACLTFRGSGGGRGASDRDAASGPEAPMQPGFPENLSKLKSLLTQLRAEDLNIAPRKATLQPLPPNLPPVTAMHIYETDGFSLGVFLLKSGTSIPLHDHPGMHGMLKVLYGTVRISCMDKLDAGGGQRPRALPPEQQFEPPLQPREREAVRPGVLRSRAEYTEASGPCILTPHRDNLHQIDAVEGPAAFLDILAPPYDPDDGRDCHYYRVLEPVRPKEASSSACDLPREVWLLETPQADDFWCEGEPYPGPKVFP

[3] = molecular target: T3, ADO-I109A, N-terminally His-tagged and biotinylated (human, UniProt Q96SZ5 1-270, I109A, biotin (biotinylated during expression)); experiment: as above
T3 construct: 2-aminoethanethiol dioxygenase (ADO), human, UniProt Q96SZ5, full length, site-directed mutant; source: E. coli Rosetta2(DE3), purified (Ni-NTA, SEC); not shown: biotinylation tag (from the vector pQE80L-Navi), N-terminal, kept
T3 sequence (looked up): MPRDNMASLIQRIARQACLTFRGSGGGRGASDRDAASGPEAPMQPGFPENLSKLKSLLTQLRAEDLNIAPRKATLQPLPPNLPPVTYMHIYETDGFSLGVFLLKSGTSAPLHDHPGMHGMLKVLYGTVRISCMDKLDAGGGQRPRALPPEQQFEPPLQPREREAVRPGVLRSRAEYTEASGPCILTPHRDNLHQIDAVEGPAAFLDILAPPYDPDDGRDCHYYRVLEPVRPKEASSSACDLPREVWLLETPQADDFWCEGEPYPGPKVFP

[4] = molecular target: T4, ADO-Y87F, N-terminally His-tagged and biotinylated (human, UniProt Q96SZ5 1-270, Y87F, biotin (biotinylated during expression)); experiment: as above
T4 construct: 2-aminoethanethiol dioxygenase (ADO), human, UniProt Q96SZ5, full length, site-directed mutant; source: E. coli Rosetta2(DE3), purified (Ni-NTA, SEC); not shown: biotinylation tag (from the vector pQE80L-Navi), N-terminal, kept
T4 sequence (looked up): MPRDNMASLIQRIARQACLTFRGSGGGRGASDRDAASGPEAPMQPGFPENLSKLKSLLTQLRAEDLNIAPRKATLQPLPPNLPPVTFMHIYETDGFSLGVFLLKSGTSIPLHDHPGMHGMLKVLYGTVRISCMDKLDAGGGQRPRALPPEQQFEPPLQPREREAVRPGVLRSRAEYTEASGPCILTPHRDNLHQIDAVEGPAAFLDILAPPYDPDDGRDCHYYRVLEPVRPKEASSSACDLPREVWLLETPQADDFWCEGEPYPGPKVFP

[5] = molecular target: T5, ADO-Y212F, N-terminally His-tagged and biotinylated (human, UniProt Q96SZ5 1-270, Y212F, biotin (biotinylated during expression)); experiment: as above
T5 construct: 2-aminoethanethiol dioxygenase (ADO), human, UniProt Q96SZ5, full length, site-directed mutant; source: E. coli Rosetta2(DE3), purified (Ni-NTA, SEC); not shown: biotinylation tag (from the vector pQE80L-Navi), N-terminal, kept
T5 sequence (looked up): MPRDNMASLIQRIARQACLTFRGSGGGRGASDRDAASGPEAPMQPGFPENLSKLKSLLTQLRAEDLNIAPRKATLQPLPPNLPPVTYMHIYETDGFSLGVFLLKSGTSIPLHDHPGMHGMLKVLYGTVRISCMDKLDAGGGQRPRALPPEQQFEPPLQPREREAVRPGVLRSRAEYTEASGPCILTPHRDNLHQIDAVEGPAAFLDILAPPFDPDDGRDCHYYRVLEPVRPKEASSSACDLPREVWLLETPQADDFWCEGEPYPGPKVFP

Binder	Kd [1] [nM]	Kd [2]	Kd [3]	Kd [4]	Kd [5]
CFPKVLSDDMKKLK (peptide, UniProt P24001 2-15, looked up, Interleukin 32 (IL32), residues 2-15, N-terminal Cys; also called IL32 peptide; source: synthetic peptide)	870				
CFPKVLSDDMKKLK (peptide, UniProt P24001 2-15, looked up, interleukin 32 (IL32), residues 2-15 (N-terminal Cys exposed); also called 14-mer IL32; source: synthetic peptide)		4.57 µM and 3.79 µM and 4.17 µM	14.2 µM and 15.1 µM and 18.4 µM	303 nM and 327 nM and 329 nM	8.76 µM and 9.12 µM and 9.82 µM
